Source: paper PMC7547722, “A versatile soluble siglec scaffold for sensitive and quantitative detection of glycan ligands” (Nature Communications, 2020)
Several values for one entry are separate records, joined by “and”; a condition that tells them apart may be missing. Identical values can stand only once.

Key:
[1] = test system: U937 cells treated with neuraminidase; experiment: Pre-complexed Siglec-Fc staining of cells treated with Neu-S or Neu-A; format: cell-based
[2] = test system: human peripheral blood monocytes; experiment: CD33-Fc binding to monocytes treated with Neu-S or Neu-A; format: cell-based; details: Figure 6c; WT (no neuraminidase)
Experimental: (§1) Strep-Tactin-AF647 (0.55 μg/mL, 0.57 pmol), streptavidin (Biolegend), or anti-human igG1 (Biolegend) was added to Siglec supernatant (50 μL) or purified Siglec and allowed to sit at 4 °C for 15 min. After, the pre-complexed solution was added to cells in a 96-well U-bottom plate for 30 min at 4 °C. After, 200 μL of flow buffer (HBSS, 0.1% BSA, 5 mM EDTA) was added and the plate was spun down at 300 rcf for 5 min. The cells were resuspended in 200 μL of flow buffer and processed through the flow cytometer.
For human splenocytes, the sample was homogenized in media through a 40 µm filter (Corning) under sterile conditions. Samples were centrifuged at 300 rcf for 5 min. The resulting pellet from the spleen sample and whole human blood were treated with RBC lysis buffer (7 min) and centrifuged at 300 rcf and the RBC lysis was repeated twice more until no RBC remained in the pellet. […]
Flow cytometry was performed on a BD LSRFortessa™ X-20 cell analyzer using BD FACSDiva Software Version 8.0.1 and data was processed using FlowJo LLC. […] The live, single cell populations were gated out with two gates to obtain the median fluorescence intensity (MFI), which indicates binding of the Siglec-Fc-secondary complex to the cell surface. Control cells that were incubated with Strep-Tactin-AF647 (0.55 μg/mL, 0.57 pmol) was used to determine the baseline fluorescence. […]

[3] = test system: U937 cells; experiment: Flow cytometry, Siglec-Fc pre-complexed with Strep-Tactin, streptavidin or anti-human IgG1; format: cell-based; details: U937; Strep-Tactin-AF647; replicates, Fig. 2
Experimental: as §1
(§2) Flow cytometry was performed on a BD LSRFortessa™ X-20 cell analyzer using BD FACSDiva Software Version 8.0.1 and data was processed using FlowJo LLC. Version 9.9.6 and Graphpad Prism 8. The live, single cell populations were gated out with two gates to obtain the median fluorescence intensity (MFI), which indicates binding of the Siglec-Fc-secondary complex to the cell surface. Control cells that were incubated with Strep-Tactin-AF647 (0.55 μg/mL, 0.57 pmol) was used to determine the baseline fluorescence. Number of cells (# cells) plotted indicates percentage of max (% max).

[4] = test system: A549 cells; experiment: Flow cytometry, pre-complexed Siglec-Fc binding; format: cell-based; details: Strep-Tactin-AF647, replicates
Experimental: as §1, §2

[5] = test system: HEK293T cells; experiment: Flow cytometry, pre-complexed Siglec-Fc binding; format: cell-based; details: HEK; Strep-Tactin-AF647; replicates
Experimental: as §1, §2

[6] = test system: HuH7 cells; experiment: Flow cytometry, pre-complexed Siglec-Fc binding; format: cell-based; details: Strep-Tactin-AF647, replicates
Experimental: as §1, §2

[7] = test system: Jurkat cells; experiment: Flow cytometry, pre-complexed Siglec-Fc binding; format: cell-based; details: Strep-Tactin-AF647, replicates
Experimental: as §1, §2

[8] = test system: K562 cells; experiment: Flow cytometry, pre-complexed Siglec-Fc binding; format: cell-based; details: Strep-Tactin-AF647, replicates
Experimental: as §1, §2

[9] = test system: BT549; experiment: Flow cytometry, pre-complexed Siglec-Fc binding to breast cancer cell line; format: cell-based; details: Strep-Tactin-AF647, replicates
Experimental: as §1, §2

[10] = test system: HS578T; experiment: as above; format: cell-based; details: Strep-Tactin-AF647, replicates
Experimental: as §1, §2

[11] = test system: MCF7; experiment: as above; format: cell-based; details: Strep-Tactin-AF647, replicates
Experimental: as §1, §2

[12] = test system: MDA-MB-231; experiment: as above; format: cell-based; details: Strep-Tactin-AF647, replicates
Experimental: as §1, §2

[13] = test system: MDA-MB-468; experiment: as above; format: cell-based; details: Strep-Tactin-AF647, replicates
Experimental: as §1, §2

[14] = test system: T47D; experiment: as above; format: cell-based; details: Strep-Tactin-AF647, replicates
Experimental: as §1, §2

[15] = test system: ZR-75-1; experiment: as above; format: cell-based; details: Strep-Tactin-AF647, replicates
Experimental: as §1, §2

[16] = test system: basophils (CCR3+); experiment: Siglec ligands on peripheral blood immune cells, flow cytometry; format: cell-based, human; details: replicate values
Experimental: (§3) Siglec supernatant (50 μL) or purified Siglec was incubated with cells in a 96-well U-bottom plate for 30 min at 4 °C. Following the incubation, 200 μL of flow buffer (HBSS, 0.1% BSA, 5 mM EDTA) was added and the plate was spun down at 300 rcf for 5 min. Strep-Tactin-AF647 (0.55 μg/mL, 50 μL, 0.57 pmol), streptavidin (Biolegend), or anti-human IgG1 (Biolegend) was added to the cells and incubated for 30 min at 4 °C. After, 200 μL of flow buffer (HBSS, 0.1% BSA, 5 mM EDTA) was added and the plate was spun down at 300 rcf for 5 min. The cells were resuspended in 200 μL of flow buffer and processed through the flow cytometer.
as §1
(§4) For human splenocytes, the sample was homogenized in media through a 40 µm filter (Corning) under sterile conditions. Samples were centrifuged at 300 rcf for 5 min. The resulting pellet from the spleen sample and whole human blood were treated with RBC lysis buffer (7 min) and centrifuged at 300 rcf and the RBC lysis was repeated twice more until no RBC remained in the pellet. Samples were treated with human Fc-receptor blocking agent (TruStain FX, Biolegend) in flow buffer (HBSS, 0.1% BSA, 5 mM EDTA). For analysis, the following cocktail was used: hSig8 (PerCP/Cy5.5, clone 7C9, Biolegend cat. no. 347108, 1:200), hCD123 (PE/Cy7, clone 6H6, Biolegend cat. no. 306010, 1:200), hCD19 (PE, clone SJ25C1, Biolegend cat. no. 363004, 1:200), hCD3 (FITC, BD Pharmingen cat. no. 555332, 1:50), hCD14 (BV605, clone M5E2, BD Horizon cat. no. 564056, 1:200), hCD15 (BUV395, clone HI98, BD Horizon cat. no. 563872, 1:200), hCD56 (BV510, clone NCAM16.2, BD Horizon cat. no. 563041, 1:200). For human peripheral blood samples, we additionally used hHLA-DR (APC-Cy7, clone L243, Biolegend cat. no. 307618, 1:200). Pre-complexed Siglec-Fc/Strep-Tactin-AF647 (described above) was added to the antibody cocktail, added to cells, and allowed to stain at 4 °C for 45 min. The cells were then centrifuged at 300 rcf for 5 min and resuspended in flow buffer containing 1 µg/mL propidium iodide prior to analysis by flow cytometry.
as §2

[17] = test system: eosinophils (Siglec-8+); experiment: as above; format: cell-based, human; details: replicate values
Experimental: as §3, §1, §4, §2

[18] = test system: monocytes (CD14+); experiment: as above; format: cell-based, human; details: replicate values
Experimental: as §3, §1, §4, §2

[19] = test system: B-cells (CD19+); experiment: as above; format: cell-based, human; details: replicate values
Experimental: as §4, §2

[20] = test system: NK cells (CD56+); experiment: as above; format: cell-based, human; details: replicate values
Experimental: as §4, §2

[21] = test system: T-cells (CD3+); experiment: as above; format: cell-based, human; details: replicate values
Experimental: as §4, §2

[22] = test system: cDCs (CD123dim/HLA-DR+); experiment: as above; format: cell-based, human; details: cDC; replicate values
Experimental: as §4, §2

[23] = test system: neutrophils (CD15+); experiment: as above; format: cell-based, human; details: replicate values
Experimental: as §4, §2

[24] = test system: pDCs (CD123high/HLA-DR+); experiment: as above; format: cell-based, human; details: pDC; replicate values
Experimental: as §4, §2

[25] = test system: neutrophils (CD15+), human splenocytes; experiment: Siglec-Fc (CD22-Fc V1/V2, with or without Fc receptor block) binding to splenocytes, flow cytometry; format: cell-based; details: Suppl Fig 12; three replicate columns
Experimental: as §4, §2

[26] = test system: B-cells (CD19+), human splenocytes; experiment: Siglec-Fc binding to splenocytes, flow cytometry; format: cell-based; details: Suppl Fig 12; three replicate columns
Experimental: as §4, §2

[27] = test system: NK cells (CD56+), human splenocytes; experiment: Siglec-Fc binding to splenocytes, flow cytometry; format: cell-based; details: Suppl Fig 12; three replicate columns
Experimental: as §4, §2

[28] = test system: T-cells (CD3+), human splenocytes; experiment: Siglec-Fc binding to splenocytes, flow cytometry; format: cell-based; details: Suppl Fig 12; three replicate columns
Experimental: as §4, §2

[29] = test system: monocytes (CD14+), human splenocytes; experiment: Siglec-Fc binding to splenocytes, flow cytometry; format: cell-based; details: Suppl Fig 12; three replicate columns
Experimental: as §4, §2

[30] = test system: peripheral blood immune cells; experiment: Comparison of 2-step and pre-complexed Siglec-Fc binding, flow cytometry (Figure 3e-g); format: cell-based, human; details: Figure 3f; 2-Step; listed as Siglec-7-Fc R124A

B1: CD33-Fc R119A (protein, UniProt P20138 18-259, looked up, variant R119A)
extracellular domain: DPNFWLQVQESVTVQEGLCVLVPCTFFHPIPYYDKNSPVHGYWFREGAIISRDSPVATNKLDQEVQEETQGRFRLLGDPSRNNCSLSIVDARRRDNGSYFFAMERGSTKYSYKSPQLSVHVTDLTHRPKILIPGTLEPGHSKNLTCSVSWACEQGTPPIFSWLSAAPTSLGPRTTHSSVLIITPRPQDHGTNLTCQVKFAGAGVTTERTIQLNVTYVPQNPTTGIFPGDGSGKQETRAGVVH
modifications: extracellular domain fused to human IgG1 Fc
- CD33-Fc Binding ([1]; Figure 6a, +Neu-A): 106 and 114
- CD33-Fc Binding ([1]; Figure 6a, +Neu-S): 92.4 and 95.2
- CD33-Fc Binding ([1]; Figure 6a, WT cells (no neuraminidase)): 77.3 and 79
- CD33-Fc Binding ([1]; Figure 6b, +Neu-A): 74 and 74.9
- CD33-Fc Binding ([1]; Figure 6b, +Neu-S): 73 and 72.1 and 68.7
- CD33-Fc Binding ([1]; Figure 6b, WT cells (no neuraminidase)): 77.3 and 79
- CD33-Fc Binding [2]: 42.3 and 56.8 and 61

B2: Sig-7 R124A: Siglec-7-Fc essential arginine mutant (protein, UniProt Q9Y286 19-353, looked up, variant R124A)
extracellular domain: QKSNRKDYSLTMQSSVTVQEGMCVHVRCSFSYPVDSQTDSDPVHGYWFRAGNDISWKAPVATNNPAWAVQEETRDRFHLLGDPQTKNCTLSIRDARMSDAGRYFFAMEKGNIKWNYKYDQLSVNVTALTHRPNILIPGTLESGCFQNLTCSVPWACEQGTPPMISWMGTSVSPLHPSTTRSSVLTLIPQPQHHGTSLTCQVTLPGAGVTTNRTIQLNVSYPPQNLTVTVFQGEGTASTALGNSSSLSVLEGQSLRLVCAVDSNPPARLSWTWRSLTLYPSQPSNPLVLELQVHLGDEGEFTCRAQNSLGSQHVSLNLSLQQEYTGKMRPVSGVLL
modifications: extracellular domain fused to human IgG1 Fc
notes: Siglec-7-Fc essential arginine mutant
- binding of pre-complexed Siglec-Fc (MFI) [3]: 137 and 149 and 150
- binding of pre-complexed Siglec-Fc (MFI) [4]: 129 (2×) and 134
- binding of pre-complexed Siglec-Fc (MFI) [5]: 85 and 88.7 and 91
- binding of pre-complexed Siglec-Fc (MFI) [6]: 105
- binding of pre-complexed Siglec-Fc (MFI) [7]: 90.2 and 95.5 and 99.5
- binding of pre-complexed Siglec-Fc (MFI) [8]: 103 and 99.8 and 101
- binding of pre-complexed Siglec-Fc (MFI) [9]: 114 and 117 and 118
- binding of pre-complexed Siglec-Fc (MFI) [10]: 148 and 144 and 145
- binding of pre-complexed Siglec-Fc (MFI) [11]: 121 and 126 and 130
- binding of pre-complexed Siglec-Fc (MFI) [12]: 165 and 175 and 187
- binding of pre-complexed Siglec-Fc (MFI) [13]: 155 and 154 and 158
- binding of pre-complexed Siglec-Fc (MFI) [14]: 116 and 117 and 119
- binding of pre-complexed Siglec-Fc (MFI) [15]: 229 and 258 and 236
- Siglec-Fc binding (Figure 3d) [16]: 41.1 and 57.8 and 2.57
- Siglec-Fc binding (Figure 3d) [17]: -1.28 and 37.2 and 6.04
- Siglec-Fc binding (Figure 3d) [18]: 56.5 and 99 and 6.42
- Siglec-Fc binding (Figure 3d) [19]: 52.4 and 51.4 and 53.1
- Siglec-Fc binding (Figure 3d) [20]: 14.1 and 38.5 and 10.3
- Siglec-Fc binding (Figure 3d) [21]: 7.7 and 27 and 12.8
- Siglec-Fc binding (Figure 3d) [22]: 70.6 and -20.5 and 24.4
- Siglec-Fc binding (Figure 3d) [23]: 46.2 and 51.8 and 78.1
- Siglec-Fc binding (Figure 3d) [24]: 57.8 and 10.3 and 41.1
- Binding, Neutrophils [25]: 10.1 and 1.12 and 11.5
- Binding, B-cells [26]: 8.11 and 1.36 and 3.18
- Binding, NK [27]: 1.26 and 1.99 and 1.13
- Binding, T-cells [28]: 2.32 and 2.93 and 4.67
- Binding, Monocytes [29]: 7.43 and 2.68 and 5.18
- Siglec-7-Fc Binding [30]: 9.54 and 11.2
